The source of these data is PMC9376112, “XPC–PARP complexes engage the chromatin remodeler ALC1 to catalyze global genome DNA damage repair” (Nature Communications, 2022).

One experiment deals with T1, GFP-PARP2 (UniProt Q9UGN5-2 1-570).
T1 construct: also called PARP2-GFP; source: U2OS (FRT) WT, stably expressed (Flp-In, doxycycline-inducible), in lysate; not shown: GFP, N-terminal, kept
As to the kind of experiment: affinity purification with mass spectrometry; GFP pull-down of PARP1-GFP or GFP-PARP2 from U2OS (FRT) WT cells, label-free proteomics with iBAQ quantification; cells unirradiated or UV-C-irradiated (20 J/m^2, 1 h). The settings on record: partners not purified.

A further experiment deals with T2, PARP1-GFP (UniProt P09874 1-1014).
T2 construct: source: U2OS (FRT) WT, stably expressed (Flp-In, doxycycline-inducible), in lysate; not shown: GFP, C-terminal, kept
The experiment is described as above. Particulars: partners not purified.

T1 sequence (Q9UGN5 other isoform, or with tags, fused parts or gaps): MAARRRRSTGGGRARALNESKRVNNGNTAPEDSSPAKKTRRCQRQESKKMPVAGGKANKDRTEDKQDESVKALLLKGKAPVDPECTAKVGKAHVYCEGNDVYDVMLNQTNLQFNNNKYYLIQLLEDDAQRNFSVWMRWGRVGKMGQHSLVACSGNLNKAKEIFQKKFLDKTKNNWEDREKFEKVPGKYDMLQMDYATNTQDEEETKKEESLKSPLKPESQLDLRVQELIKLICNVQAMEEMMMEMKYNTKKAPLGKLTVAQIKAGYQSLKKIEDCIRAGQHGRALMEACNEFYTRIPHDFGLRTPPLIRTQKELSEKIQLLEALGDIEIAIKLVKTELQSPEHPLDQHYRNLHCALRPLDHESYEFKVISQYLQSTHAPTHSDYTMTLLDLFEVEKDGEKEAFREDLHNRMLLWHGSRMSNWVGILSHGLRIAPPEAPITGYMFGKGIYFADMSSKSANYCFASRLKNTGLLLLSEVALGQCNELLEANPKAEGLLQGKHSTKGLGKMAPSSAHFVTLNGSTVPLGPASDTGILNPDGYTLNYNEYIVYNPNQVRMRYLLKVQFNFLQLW
T2 sequence (P09874 whole entry): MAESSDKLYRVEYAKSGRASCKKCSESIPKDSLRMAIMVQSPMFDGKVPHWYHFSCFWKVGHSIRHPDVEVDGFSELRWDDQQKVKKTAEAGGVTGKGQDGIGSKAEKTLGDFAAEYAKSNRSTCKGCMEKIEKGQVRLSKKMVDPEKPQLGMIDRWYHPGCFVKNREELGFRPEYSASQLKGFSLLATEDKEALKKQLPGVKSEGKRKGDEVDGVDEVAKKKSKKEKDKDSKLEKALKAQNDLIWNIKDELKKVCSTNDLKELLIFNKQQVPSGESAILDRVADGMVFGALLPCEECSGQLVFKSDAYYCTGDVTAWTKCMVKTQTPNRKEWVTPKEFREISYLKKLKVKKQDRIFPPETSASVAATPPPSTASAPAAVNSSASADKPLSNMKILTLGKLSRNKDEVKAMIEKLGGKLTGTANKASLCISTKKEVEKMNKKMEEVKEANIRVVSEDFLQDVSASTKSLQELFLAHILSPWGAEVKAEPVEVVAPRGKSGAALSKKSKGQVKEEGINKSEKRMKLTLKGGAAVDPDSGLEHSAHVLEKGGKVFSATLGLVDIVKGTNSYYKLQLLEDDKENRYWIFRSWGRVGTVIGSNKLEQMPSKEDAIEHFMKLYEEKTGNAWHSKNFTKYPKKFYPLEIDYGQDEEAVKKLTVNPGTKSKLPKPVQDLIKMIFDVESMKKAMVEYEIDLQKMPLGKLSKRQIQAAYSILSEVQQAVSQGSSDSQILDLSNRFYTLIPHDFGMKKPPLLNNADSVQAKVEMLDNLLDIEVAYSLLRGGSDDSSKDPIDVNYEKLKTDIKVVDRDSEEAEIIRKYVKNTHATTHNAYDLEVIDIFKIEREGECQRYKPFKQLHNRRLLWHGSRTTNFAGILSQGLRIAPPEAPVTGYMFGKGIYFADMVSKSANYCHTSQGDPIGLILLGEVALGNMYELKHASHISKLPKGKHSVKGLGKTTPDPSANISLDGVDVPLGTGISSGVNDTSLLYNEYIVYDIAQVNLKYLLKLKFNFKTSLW

B1: XPC (endogenous) (natural protein, human (endogenous in U2OS), UniProt Q01831 1-940, looked up)
chain: MARKRAAGGEPRGRELRSQKSKAKSKARREEEEEDAFEDEKPPKKSLLSKVSQGKRKRGCSHPGGSADGPAKKKVAKVTVKSENLKVIKDEALSDGDDLRDFPSDLKKAHHLKRGATMNEDSNEEEEESENDWEEVEELSEPVLGDVRESTAFSRSLLPVKPVEIEIETPEQAKTRERSEKIKLEFETYLRRAMKRFNKGVHEDTHKVHLLCLLANGFYRNNICSQPDLHAIGLSIIPARFTRVLPRDVDTYYLSNLVKWFIGTFTVNAELSASEQDNLQTTLERRFAIYSARDDEELVHIFLLILRALQLLTRLVLSLQPIPLKSATAKGKKPSKERLTADPGGSSETSSQVLENHTKPKTSKGTKQEETFAKGTCRPSAKGKRNKGGRKKRSKPSSSEEDEGPGDKQEKATQRRPHGRERRVASRVSYKEESGSDEAGSGSDFELSSGEASDPSDEDSEPGPPKQRKAPAPQRTKAGSKSASRTHRGSHRKDPSLPAASSSSSSSKRGKKMCSDGEKAEKRSIAGIDQWLEVFCEQEEKWVCVDCVHGVVGQPLTCYKYATKPMTYVVGIDSDGWVRDVTQRYDPVWMTVTRKCRVDAEWWAETLRPYQSPFMDREKKEDLEFQAKHMDQPLPTAIGLYKNHPLYALKRHLLKYEAIYPETAAILGYCRGEAVYSRDCVHTLHSRDTWLKKARVVRLGEVPYKMVKGFSNRARKARLAEPQLREENDLGLFGYWQTEEYQPPVAVDGKVPRNEFGNVYLFLPSMMPIGCVQLNLPNLHRVARKLDIDCVQAITGFDFHGGYSHPVTDGYIVCEEFKDVLLTAWENEQAVIERKEKEKKEKRALGNWKLLAKGLLIRERLKRRYGPKSEAAAPHTDAGGGLSSDEEEGTSSQAEAARILAASWPQNREDEEKQKLKGGPKKTKREKKAAASHLFPFEQL
notes: XPC, endogenous in U2OS cells; source: endogenous, U2OS (FRT) WT lysate
Turning to B1, in the experiment with GFP-PARP2, the “fold, fraction of bait molecules associated with XPC, GFP-PARP2 against PARP1-GFP (iBAQ)” value stood at 10 fold.

B2: ALC1 (endogenous) (enzyme, human (endogenous in U2OS), UniProt Q86WJ1 1-897, looked up)
chain: MERAGATSRGGQAPGFLLRLHTEGRAEAARVQEQDLRQWGLTGIHLRSYQLEGVNWLAQRFHCQNGCILGDEMGLGKTCQTIALFIYLAGRLNDEGPFLILCPLSVLSNWKEEMQRFAPGLSCVTYAGDKEERACLQQDLKQESRFHVLLTTYEICLKDASFLKSFPWSVLVVDEAHRLKNQSSLLHKTLSEFSVVFSLLLTGTPIQNSLQELYSLLSFVEPDLFSKEEVGDFIQRYQDIEKESESASELHKLLQPFLLRRVKAEVATELPKKTEVVIYHGMSALQKKYYKAILMKDLDAFENETAKKVKLQNILSQLRKCVDHPYLFDGVEPEPFEVGDHLTEASGKLHLLDKLLAFLYSGGHRVLLFSQMTQMLDILQDYMDYRGYSYERVDGSVRGEERHLAIKNFGQQPIFVFLLSTRAGGVGMNLTAADTVIFVDSDFNPQNDLQAAARAHRIGQNKSVKVIRLIGRDTVEEIVYRKAASKLQLTNMIIEGGHFTLGAQKPAADADLQLSEILKFGLDKLLASEGSTMDEIDLESILGETKDGQWVSDALPAAEGGSRDQEEGKNHMYLFEGKDYSKEPSKEDRKSFEQLVNLQKTLLEKASQEGRSLRNKGSVLIPGLVEGSTKRKRVLSPEELEDRQKKRQEAAAKRRRLIEEKKRQKEEAEHKKKMAWWESNNYQSFCLPSEESEPEDLENGEESSAELDYQDPDATSLKYVSGDVTHPQAGAEDALIVHCVDDSGHWGRGGLFTALEKRSAEPRKIYELAGKMKDLSLGGVLLFPVDDKESRNKGQDLLALIVAQHRDRSNVLSGIKMAALEEGLKKIFLAAKKKKASVHLPRIGHATKGFNWYGTERLIRKHLAARGIPTYIYYFPRSKSAVLHSQSSSSSSRQLVP
notes: ALC1 (CHD1L), endogenous in U2OS cells; also called poly-(ADP-ribose)-dependent chromatin remodeler ALC1; the remodeler; source: endogenous, U2OS (FRT) WT lysate
Turning to B2, the “percent of the isolated bait molecules associated with the prey (iBAQ)” value in the experiment with PARP1-GFP was 0.07%; in the experiment with GFP-PARP2 it was approximately 15%.
